In the test the target is wild-type A3A 1-199 (APOBEC3A) (human) (UniProt P31941). The test is described as follows: SEC.

Sequence of wild-type A3A 1-199 (APOBEC3A), P31941 1-199 (enzyme; other documents disagree on this pair) (P31941 whole entry): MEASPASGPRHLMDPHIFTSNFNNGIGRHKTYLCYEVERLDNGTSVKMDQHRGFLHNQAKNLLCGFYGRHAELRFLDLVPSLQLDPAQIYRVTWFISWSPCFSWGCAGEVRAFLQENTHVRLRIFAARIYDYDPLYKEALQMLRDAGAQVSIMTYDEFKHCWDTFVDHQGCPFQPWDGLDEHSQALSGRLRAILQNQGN

The substance “wild-type A3A 1-199 (APOBEC3A), P31941 1-199 (enzyme; other documents disagree on this pair)” returned a stoichiometry N of 2.

The record behind these values is PMC7211764.
